Target: FGF-21 receptor on differentiated 3T3-L1 fat cells (mouse)
Assay: cell-based or functional assay

- Glucose uptake CPM of 3T3-L1 fat cells at 0 nM protein (baseline): 1880 CPM
- Glucose uptake CPM of 3T3-L1 fat cells at 0.03 nM protein: 1800 CPM
- Glucose uptake CPM of 3T3-L1 fat cells at 0.15 nM protein: 2110 CPM
- Glucose uptake CPM of 3T3-L1 fat cells at 0.8 nM protein: 2200 CPM
- Glucose uptake CPM of 3T3-L1 fat cells at 4 nM protein: 3300 CPM
- Glucose uptake CPM of 3T3-L1 fat cells at 20 nM protein: 5130 CPM
- Glucose uptake CPM of 3T3-L1 fat cells at 100 nM protein: 5320 CPM
Substance: recombinant human FGF-21 (from Chongqing Fagen Biomedical Inc.) (from UniProt Q9NSA1 29-209) (ligand)

— patent EP2468858B1
